Measured values taken from PMC7066243.

Assays:
[1] = target: T1, ether-a-go-go 1 voltage-gated potassium channel (hEAG1) (human) (UniProt O95259)
T1 sequence: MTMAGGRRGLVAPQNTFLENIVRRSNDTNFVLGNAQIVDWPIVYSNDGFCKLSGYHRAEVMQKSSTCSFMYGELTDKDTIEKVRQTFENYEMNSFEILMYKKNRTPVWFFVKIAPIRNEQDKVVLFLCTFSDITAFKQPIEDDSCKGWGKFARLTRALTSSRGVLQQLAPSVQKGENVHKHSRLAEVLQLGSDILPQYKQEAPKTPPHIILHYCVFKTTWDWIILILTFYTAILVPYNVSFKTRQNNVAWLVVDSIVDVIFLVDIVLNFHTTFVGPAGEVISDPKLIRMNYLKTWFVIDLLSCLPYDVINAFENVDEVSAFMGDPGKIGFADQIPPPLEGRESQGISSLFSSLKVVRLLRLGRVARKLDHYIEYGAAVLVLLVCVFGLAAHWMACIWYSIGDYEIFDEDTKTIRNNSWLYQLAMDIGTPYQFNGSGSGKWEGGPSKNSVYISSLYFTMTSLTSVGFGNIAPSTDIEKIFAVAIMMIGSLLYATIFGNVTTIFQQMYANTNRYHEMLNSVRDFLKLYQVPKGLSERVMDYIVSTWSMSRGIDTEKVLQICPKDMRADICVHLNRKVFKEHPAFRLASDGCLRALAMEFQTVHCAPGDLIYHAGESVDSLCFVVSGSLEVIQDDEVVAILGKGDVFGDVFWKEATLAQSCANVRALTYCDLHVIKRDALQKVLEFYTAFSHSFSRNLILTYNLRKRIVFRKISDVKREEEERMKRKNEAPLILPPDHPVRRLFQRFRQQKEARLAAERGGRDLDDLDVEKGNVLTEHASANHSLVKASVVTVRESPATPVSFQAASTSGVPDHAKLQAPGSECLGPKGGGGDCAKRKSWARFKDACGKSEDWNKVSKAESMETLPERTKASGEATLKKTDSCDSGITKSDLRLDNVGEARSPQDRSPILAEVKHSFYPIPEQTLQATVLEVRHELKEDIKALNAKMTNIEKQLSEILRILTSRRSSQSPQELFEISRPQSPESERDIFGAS

[2] = target: T1, ether-a-go-go 1 voltage-gated potassium channel (hEAG1) (human); remark: listed apart in the source

| Substance | inhibition of hEAG1 current at 5 µM (two-electrode voltage clamp, Xenopus laevis oocytes) [1] [%] | IC50 of inhibition of hEAG1 current (two-electrode voltage clamp, Xenopus laevis oocytes) [2] [µM] |
| --- | --- | --- |
| BjSP (from UniProt Q5W959 25-258) (enzyme) | 9.2 |  |
| gyroxin_B1.3 (from UniProt B0FXM1 25-262) (enzyme) | 58 |  |
| mutant collinein-1 (His43Arg) (enzyme) |  | 4.3 |
| native collinein-1 (enzyme) |  | 4.2 |
| recombinant collinein-1 (enzyme) |  | 2.5 |
